Substitutions are numbered along the chain they refer to. Names may count otherwise.
Tests used:
[1] = biological target: T1, AtSULTR4;1 ΔSTAS (Arabidopsis thaliana, UniProt Q9FY46); experiment: […]SO4 uptake into proteoliposomes, […] min; assay type: biochemical; conditions: 13.3 µM 35SO4, pH 7.5 inside / 5.5 outside; labelled compound
T1 construct: gene SULTR4; STAS domain (residues 503-685) truncated, transmembrane domain only, C-terminal His6-tag cleaved by TEV, High Five insect cells, monomeric by SEC
T1 sequence (Q9FY46 1-502): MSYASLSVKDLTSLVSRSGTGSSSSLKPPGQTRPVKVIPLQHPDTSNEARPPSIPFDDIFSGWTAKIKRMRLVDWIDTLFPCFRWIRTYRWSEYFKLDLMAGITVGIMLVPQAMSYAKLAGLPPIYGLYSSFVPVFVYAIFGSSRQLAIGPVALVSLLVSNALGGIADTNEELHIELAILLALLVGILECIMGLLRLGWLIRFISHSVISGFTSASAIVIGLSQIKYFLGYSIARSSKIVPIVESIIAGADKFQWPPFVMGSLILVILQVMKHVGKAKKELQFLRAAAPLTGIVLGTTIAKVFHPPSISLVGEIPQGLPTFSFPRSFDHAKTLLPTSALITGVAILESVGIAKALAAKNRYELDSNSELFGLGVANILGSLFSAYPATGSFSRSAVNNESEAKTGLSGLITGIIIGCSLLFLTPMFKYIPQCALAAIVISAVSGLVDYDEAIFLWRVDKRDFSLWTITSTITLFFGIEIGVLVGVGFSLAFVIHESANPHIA

[2] = biological target: the molecule itself; experiment: cryo-EM structure; AtSULTR4;1 in GDN, 20 mM MES pH 6.0, 150 mM Na2SO4, 5 mM BME; refined with C2 symmetry; overall resolution 2.8 Å
[3] = biological target: the molecule itself; experiment: SEC; purified protein on SRT-3C SEC-300 column, 20 mM HEPES, 150 mM NaCl, 5 mM BME, 0.01% LMNG; elution profile compared with wild type

O=S(=O)(O)O [SO4^2−]
35SO4 uptake into proteoliposomes, 5 min [1]: ΔSTAS retains a lower level of transport activity

B1: Arabidopsis thaliana sulfate transporter SULTR4;1 (AtSULTR4;1), wild type (natural protein, UniProt Q9FY46 24-685, looked up)
chain: SSLKPPGQTRPVKVIPLQHPDTSNEARPPSIPFDDIFSGWTAKIKRMRLVDWIDTLFPCFRWIRTYRWSEYFKLDLMAGITVGIMLVPQAMSYAKLAGLPPIYGLYSSFVPVFVYAIFGSSRQLAIGPVALVSLLVSNALGGIADTNEELHIELAILLALLVGILECIMGLLRLGWLIRFISHSVISGFTSASAIVIGLSQIKYFLGYSIARSSKIVPIVESIIAGADKFQWPPFVMGSLILVILQVMKHVGKAKKELQFLRAAAPLTGIVLGTTIAKVFHPPSISLVGEIPQGLPTFSFPRSFDHAKTLLPTSALITGVAILESVGIAKALAAKNRYELDSNSELFGLGVANILGSLFSAYPATGSFSRSAVNNESEAKTGLSGLITGIIIGCSLLFLTPMFKYIPQCALAAIVISAVSGLVDYDEAIFLWRVDKRDFSLWTITSTITLFFGIEIGVLVGVGFSLAFVIHESANPHIAVLGRLPGTTVYRNIKQYPEAYTYNGIVIVRIDSPIYFANISYIKDRLREYEVAVDKYTNRGLEVDRINFVILEMSPVTHIDSSAVEALKELYQEYKTRDIQLAISNPNKDVHLTIARSGMVELVGKEWFFVRVHDAVQVCLQYVQSSNLEDKHLSFTRRYGGSNNNSSSSNALLKEPLLSVEK
notes: A. thaliana SULTR4;1, codon-optimized gene (NCBI NM_121358.3); residues 1-69 and 645-685 are called the N- and C-termini and were not resolved; the model holds residues 70-644; Homodimer in the cryo-EM structure; also called WT; source: High Five (Trichoplusia ni) insect cells, baculovirus; purified (LMNG solubilisation, Talon cobalt resin, SEC); not shown: His6, C-terminal, cleaved
stoichiometry N [2]: 2

B2: AtSULTR4;1 D547R (natural protein, Arabidopsis thaliana, UniProt Q9FY46 24-685, looked up)
chain: B1 chain with D524R
notes: A. thaliana SULTR4;1 (NCBI NM_121358.3) with the charge-reversal mutation D547R on helix alpha1 of the STAS domain; Made by QuikChange on the wild-type construct; source: High Five insect cells, baculovirus; purified following the same protocol as wild type; not shown: His6, C-terminal, cleaved
binding result [3]: binds

B3: AtSULTR4;1 K353E (natural protein, Arabidopsis thaliana, UniProt Q9FY46 24-685, looked up)
chain: B1 chain with K330E
notes: A. thaliana SULTR4;1 (NCBI NM_121358.3) with the charge-reversal mutation K353E on TM8 (core domain); Made by QuikChange on the wild-type construct; source: High Five insect cells, baculovirus; purified following the same protocol as wild type; not shown: His6, C-terminal, cleaved
binding result [3]: binds

B4: AtSULTR4;1 R550E (natural protein, Arabidopsis thaliana, UniProt Q9FY46 24-685, looked up)
chain: B1 chain with R527E
notes: A. thaliana SULTR4;1 (NCBI NM_121358.3) with the charge-reversal mutation R550E on helix alpha1 of the STAS domain; Made by QuikChange on the wild-type construct; source: High Five insect cells, baculovirus; purified following the same protocol as wild type; not shown: His6, C-terminal, cleaved
binding result [3]: binds
